Experiments:
[1] = biological target: T1, CFA/I fimbrial protein (with adhesin subunit CfaE) on ETEC strain H10407 (enterotoxigenic Escherichia coli (ETEC)) (UniProt P25734); test: cell-based or functional assay
T1 sequence (looked up): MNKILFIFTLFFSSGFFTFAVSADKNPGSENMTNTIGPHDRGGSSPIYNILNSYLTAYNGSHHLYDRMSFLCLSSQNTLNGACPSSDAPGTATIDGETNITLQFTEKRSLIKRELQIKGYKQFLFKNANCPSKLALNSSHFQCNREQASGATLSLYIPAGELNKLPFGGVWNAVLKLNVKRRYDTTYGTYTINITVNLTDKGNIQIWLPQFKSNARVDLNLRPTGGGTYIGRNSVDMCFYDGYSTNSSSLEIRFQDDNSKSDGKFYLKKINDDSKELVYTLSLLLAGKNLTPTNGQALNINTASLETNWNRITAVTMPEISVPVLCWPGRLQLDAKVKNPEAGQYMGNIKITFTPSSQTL

[2] = biological target: MBP-CfaE-N (recombinant N-terminal adhesin domain of CfaE fused to an MBP tag) (enterotoxigenic Escherichia coli (ETEC)) (UniProt P25734); test: SPR (Biacore T200), CfaE on CM5 chip, VHH injected, 25 C, 1:1 model
[3] = biological target: CS6 on ETEC strain #100001 (enterotoxigenic Escherichia coli (ETEC)); test: cell-based or functional assay
[4] = biological target: CS14 on ETEC strain #400599 (enterotoxigenic Escherichia coli (ETEC)); test: cell-based or functional assay
[5] = biological target: CS19 on ETEC strain #204648 (enterotoxigenic Escherichia coli (ETEC)); test: cell-based or functional assay
[6] = biological target: CS17 on ETEC strain (enterotoxigenic Escherichia coli (ETEC)); test: cell-based or functional assay
[7] = biological target: CS1 on ETEC strain #200145 (enterotoxigenic Escherichia coli (ETEC)); test: cell-based or functional assay
[8] = biological target: CS5 on ETEC strain #204348 (enterotoxigenic Escherichia coli (ETEC)); test: cell-based or functional assay
[9] = biological target: CS21 on ETEC strain #100171 (enterotoxigenic Escherichia coli (ETEC)); test: cell-based or functional assay
[10] = biological target: CS2 on ETEC strain #201546 (enterotoxigenic Escherichia coli (ETEC)); test: cell-based or functional assay
[11] = biological target: CS4 on ETEC strain (enterotoxigenic Escherichia coli (ETEC)); test: cell-based or functional assay
[12] = biological target: CS3 on ETEC strain #100483 (enterotoxigenic Escherichia coli (ETEC)); test: cell-based or functional assay

B1: dimeric 2R215 (VHH)
chain: QVQLQESGGGLVQAGGSLRLSCAASGNIFQDAEMGWYRQAPGKEREFVATIAYGGNTNYADSVKGRFTISRDNAKNTVYLQMNSLKPEDTAVYYCAVYTGVYYDRTTGGYVAFEYWGQGTQVTVSSGGGGSGGGGSGGGGSGGGGSGGGGSGGGGSQVQLQESGGGLVQAGGSLRLSCAASGNIFQDAEMGWYRQAPGKEREFVATIAYGGNTNYADSVKGRFTISRDNAKNTVYLQMNSLKPEDTAVYYCAVYTGVYYDRTTGGYVAFEYWGQGTQVTVSSHHHHHH
With B1 the Caco2 adhesion assay: concentration at which adhesion was inhibited [1] was 1.8 µM and the MRHA IC100 [1] was 1.25 µM.

B2: VHH antibody 1H4 (monomeric) (VHH)
VHH: EVQLVESGGGLVQAGGSLRLSCAASSRTFNHYNIGWFRQAPGKEREFAAAITWNGRSTLYADSVKGRFTISRDNAKNTVYLQMNSLKPEDTAVYYCATLTTWEHKWEYNSQGQGTQVTVSS
With B2 the Kd [2] was 18.3 nM, the koff [2] was 0.000513 s⁻¹ and the kon [2] was 28100 M⁻¹ s⁻¹. The MRHA IC100 [3] was 25 µg/mL, the MRHA IC100 [4] was 100 µg/mL and the MRHA IC100 [5] was 100 µg/mL. The MRHA IC100 [6] was 6.25 µg/mL, the MRHA IC100 [7] was 100 µg/mL and the MRHA IC100 [8] was 3.12 µg/mL. The MRHA IC100 [9] was 25 µg/mL, the MRHA IC100 [1] was 200 µg/mL and the MRHA IC100 [10] was 100 µg/mL. For the same binder, the MRHA IC100 [11] was 25 µg/mL and the MRHA IC100 [12] was 100 µg/mL.

B3: trimeric 2R215 (VHH)
chain: QVQLQESGGGLVQAGGSLRLSCAASGNIFQDAEMGWYRQAPGKEREFVATIAYGGNTNYADSVKGRFTISRDNAKNTVYLQMNSLKPEDTAVYYCAVYTGVYYDRTTGGYVAFEYWGQGTQVTVSSGGGGSGGGGSGGGGSQVQLQESGGGLVQAGGSLRLSCAASGNIFQDAEMGWYRQAPGKEREFVATIAYGGNTNYADSVKGRFTISRDNAKNTVYLQMNSLKPEDTAVYYCAVYTGVYYDRTTGGYVAFEYWGQGTQVTVSSGGGGSGGGGSGGGGSQVQLQESGGGLVQAGGSLRLSCAASGNIFQDAEMGWYRQAPGKEREFVATIAYGGNTNYADSVKGRFTISRDNAKNTVYLQMNSLKPEDTAVYYCAVYTGVYYDRTTGGYVAFEYWGQGTQVTVSSHHHHHH
For B3, the Caco2 adhesion assay: concentration at which adhesion was inhibited [1] was 0.567 µM and the MRHA IC100 [1] was 2.5 µM.

From patent publication US20220025022A1
